B1: BSI-502-001 (bispecific antibody, human IgG1, kappa)
heavy: EVQLVESGGGLVQPGGSLRLSCAASGFTFSTYGMSWVRQAPGKGLVWVATINSNGGSTSYPDSVKGRFTISRDNAKNTLYLQMNSLRAEDTAVYYCARFFRFRNAMDYWGQGTLVTVSSASTKGPSVFPLAPSSKSTSGGTAALGCLVKDYFPEPVTVSWNSGALTSGVHTFPAVLQSSGLYSLSSVVTVPSSSLGTQTYICNVNHKPSNTKVDKKVEPKSCDKTHTCPPCPAPEAQGGPSVFLFPPKPKDTLYITREPEVTCVVVDVSHEDPEVKFNWYVDGVEVHNAKTKPREEQYNSTYRVVSVLTVLHQDWLNGKEYKCQVSNKALPAPIEKTISKAKGQPREPQVYTLPPSRDELTKNQVSLTCLVKGFYPSDIAVEWESNGQPENNYKTTPPVLDSDGSFFLYSKLTVDKSRWQQGNVFSCSVMHEALHNHYTQKSLSLSPGKGGGGSGGGGSQVQLVQSGAEVKKPGASVKVSCKASGYTFTTYWMHWVRQAPGQGLEWMGVIDPSDSDTTYNQKFKGRVTMTRDTSTSTVYMELSSLRSEDTAVYYCTRSLDGYYDYWGQGTLVTVSSGGGGSGGGGSGGGGSGGGGSDIQMTQSPSSLSASVGDRVTITCRPTENIYSYLAWYQQKPGKAPKLLIYFARTLAEGVPSRFSGSGSGTDFTLTISSLQPEDFATYYCQHHYGTPWTFGGGTKVEIK
light: DIQMTQSPSSLSASVGDRVTITCRTSENIYSYLAWYQQKPGKAPKFLVYNAKTLAEGVPSRFSGSGSGTDFTLTISSLQPEDFATYYCQHYYGPPTWTFGQGTKVEIKRTVAAPSVFIFPPSDEQLKSGTASVVCLLNNFYPREAKVQWKVDNALQSGNSQESVTEQDSKDSTYSLSSTLTLSKADYEKHKVYACEVTHQGLSSPVTKSFNRGEC
notes: huC2C1A1A1-V15 IgG with an anti-TSLP scFv (hu1C5F12E9-V8, VH-VL) at the C-terminus of the heavy chain
B2: BSI-502-002 (bispecific antibody, human IgG1, kappa)
heavy: EVQLVESGGGLVQPGGSLRLSCAASGFTFSTYGMSWVRQAPGKGLVWVATINSNGGSTSYPDSVKGRFTISRDNAKNTLYLQMNSLRAEDTAVYYCARFFRFRNAMDYWGQGTLVTVSSASTKGPSVFPLAPSSKSTSGGTAALGCLVKDYFPEPVTVSWNSGALTSGVHTFPAVLQSSGLYSLSSVVTVPSSSLGTQTYICNVNHKPSNTKVDKKVEPKSCDKTHTCPPCPAPEAQGGPSVFLFPPKPKDTLYITREPEVTCVVVDVSHEDPEVKFNWYVDGVEVHNAKTKPREEQYNSTYRVVSVLTVLHQDWLNGKEYKCQVSNKALPAPIEKTISKAKGQPREPQVYTLPPSRDELTKNQVSLTCLVKGFYPSDIAVEWESNGQPENNYKTTPPVLDSDGSFFLYSKLTVDKSRWQQGNVFSCSVMHEALHNHYTQKSLSLSPGKGGGGSGGGGSDIQMTQSPSSLSASVGDRVTITCRPTENIYSYLAWYQQKPGKAPKLLIYFARTLAEGVPSRFSGSGSGTDFTLTISSLQPEDFATYYCQHHYGTPWTFGGGTKVEIKGGGGSGGGGSGGGGSGGGGSQVQLVQSGAEVKKPGASVKVSCKASGYTFTTYWMHWVRQAPGQGLEWMGVIDPSDSDTTYNQKFKGRVTMTRDTSTSTVYMELSSLRSEDTAVYYCTRSLDGYYDYWGQGTLVTVSS
light: B1 light
notes: huC2C1A1A1-V15 IgG with an anti-TSLP scFv (VL-VH) at the C-terminus of the heavy chain; AQQ and YTE already stand in the entry
B3: BSI-502-003 (bispecific antibody, human IgG1, kappa)
heavy: EVQLVESGGGLVQPGGSLRLSCAASGFTFSTYGMSWVRQAPGKGLVWVATINSNGGSTSYPDSVKGRFTISRDNAKNTLYLQMNSLRAEDTAVYYCARFFRFRNAMDYWGQGTLVTVSSGGGGSGGGGSGGGGSGGGGSDIQMTQSPSSLSASVGDRVTITCRTSENIYSYLAWYQQKPGKAPKFLVYNAKTLAEGVPSRFSGSGSGTDFTLTISSLQPEDFATYYCQHYYGPPTWTFGQGTKVEIKGGGGSGGGGSQVQLVQSGAEVKKPGASVKVSCKASGYTFTTYWMHWVRQAPGQGLEWMGVIDPSDSDTTYNQKFKGRVTMTRDTSTSTVYMELSSLRSEDTAVYYCTRSLDGYYDYWGQGTLVTVSSASTKGPSVFPLAPSSKSTSGGTAALGCLVKDYFPEPVTVSWNSGALTSGVHTFPAVLQSSGLYSLSSVVTVPSSSLGTQTYICNVNHKPSNTKVDKKVEPKSCDKTHTCPPCPAPEAQGGPSVFLFPPKPKDTLYITREPEVTCVVVDVSHEDPEVKFNWYVDGVEVHNAKTKPREEQYNSTYRVVSVLTVLHQDWLNGKEYKCQVSNKALPAPIEKTISKAKGQPREPQVYTLPPSRDELTKNQVSLTCLVKGFYPSDIAVEWESNGQPENNYKTTPPVLDSDGSFFLYSKLTVDKSRWQQGNVFSCSVMHEALHNHYTQKSLSLSPG
light: DIQMTQSPSSLSASVGDRVTITCRPTENIYSYLAWYQQKPGKAPKLLIYFARTLAEGVPSRFSGSGSGTDFTLTISSLQPEDFATYYCQHHYGTPWTFGGGTKVEIKRTVAAPSVFIFPPSDEQLKSGTASVVCLLNNFYPREAKVQWKVDNALQSGNSQESVTEQDSKDSTYSLSSTLTLSKADYEKHKVYACEVTHQGLSSPVTKSFNRGEC
notes: hu1C5F12E9-V8 IgG with an anti-IL4R scFv (huC2C1A1A1-V15, VH-VL) at the N-terminus of the heavy chain; AQQ and YTE already stand in the entry
B4: BSI-502-004 (bispecific antibody, human IgG1, kappa)
heavy: DIQMTQSPSSLSASVGDRVTITCRTSENIYSYLAWYQQKPGKAPKFLVYNAKTLAEGVPSRFSGSGSGTDFTLTISSLQPEDFATYYCQHYYGPPTWTFGQGTKVEIKGGGGSGGGGSGGGGSGGGGSEVQLVESGGGLVQPGGSLRLSCAASGFTFSTYGMSWVRQAPGKGLVWVATINSNGGSTSYPDSVKGRFTISRDNAKNTLYLQMNSLRAEDTAVYYCARFFRFRNAMDYWGQGTLVTVSSGGGGSGGGGSQVQLVQSGAEVKKPGASVKVSCKASGYTFTTYWMHWVRQAPGQGLEWMGVIDPSDSDTTYNQKFKGRVTMTRDTSTSTVYMELSSLRSEDTAVYYCTRSLDGYYDYWGQGTLVTVSSASTKGPSVFPLAPSSKSTSGGTAALGCLVKDYFPEPVTVSWNSGALTSGVHTFPAVLQSSGLYSLSSVVTVPSSSLGTQTYICNVNHKPSNTKVDKKVEPKSCDKTHTCPPCPAPEAQGGPSVFLFPPKPKDTLYITREPEVTCVVVDVSHEDPEVKFNWYVDGVEVHNAKTKPREEQYNSTYRVVSVLTVLHQDWLNGKEYKCQVSNKALPAPIEKTISKAKGQPREPQVYTLPPSRDELTKNQVSLTCLVKGFYPSDIAVEWESNGQPENNYKTTPPVLDSDGSFFLYSKLTVDKSRWQQGNVFSCSVMHEALHNHYTQKSLSLSPG
light: B3 light
notes: hu1C5F12E9-V8 IgG with an anti-IL4R scFv (VL-VH) at the N-terminus of the heavy chain; AQQ and YTE already stand in the entry

Key:
[1] = molecular target: T1, recombinant human TSLP-his (human, UniProt Q969D9 29-159, biotin-labeled in the ELISAs); experiment: competitive ELISA: antibody pre-mixed with biotin human TSLP-his; blocked binding to coated TSLPR-Fc/IL7Ra-Fc
T1 construct: In-house made; not shown: His tag at the C-terminus
Experimental: Briefly, 100 μL human TSLPR-Fc proteins (SEQ ID NO: 34-SEQ ID NO: 38 fusion, prepared in-house) at 1 μg/mL in PBS, and 100 μL human IL7Ra-Fc proteins (SEQ ID NO: 35-SEQ ID NO: 38 fusion, prepared in-house) at 1 μg/mL in PBS were coated on 96-well micro plates overnight at 4° C. The next day, plates were washed with wash buffer (PBS+0.05% Tween-20, PBST), and blocked with 5% w/v non-fatty milk in PBST for 2 hours at 37° C. Plates were then washed again using wash buffer.
After incubation at 37° C. for 40 minutes, plates were washed 4 times using wash buffer. […] Plates were washed again using wash buffer. Finally, TMB was added and the reaction was stopped using 1M H₂SO₄. The absorbance was read on a microplate reader using dual wavelength mode with 450 nm for TMB and 630 nm as the reference wavelength, then the OD (450-630) values were plotted against the antibody concentration. Data was analyzed using Graphpad Prism and IC₅₀ values were reported.

[2] = molecular target: human IL4Rα on HEK293T-IL4R/STAT6/STAT6-Luc LB2 cells (human, UniProt P24394 26-825); experiment: cell-based or functional assay
[3] = molecular target: T2, recombinant human IL4Rα-his (human, UniProt P24394 26-231, limits assumed, biotin-labeled in the capture ELISA); experiment: capture ELISA: antibody captured on anti-human IgG Fc F(ab')2, biotin human IL4Rα-his, SA-HRP
T2 construct: In-house made; not shown: His tag at the C-terminus
Experimental: Briefly, 96-well plates were coated with 2 μg/mL AffiniPure F(ab′)₂ Fragment Goat Anti-Human IgG, Fey fragment specific (Jackson Immuno Research, Cat #109-006-008) in PBS, 100 μL/well, overnight at 4° C. Plates were washed once with wash buffer (PBS+0.05% w/v Tween-20, PBST) and then blocked with 200 μL/well blocking buffer (5% w/v non-fatty milk in PBST) for 2 hours at 37° C. […] After a final wash, plates were incubated with 100 μL/well ELISA substrate TMB (Innoreagents, Cat #TMB-S-002). The reaction was stopped in 10 minutes at 25° C. with 50 μL/well 1M H₂SO₄, and the absorbance was read on a microplate reader using dual wavelength mode with 450 nm for TMB and 630 nm as the reference wavelength. Data was analyzed using Graphpad Prism and EC₅₀ values were reported.

[4] = molecular target: T2, recombinant human IL4Rα-his; experiment: competitive ELISA: coated human IL4Rα-his, antibody titrated; blocked ligand biotin human IL4
Experimental: Briefly, 100 μL human IL4Rα-his proteins (prepared in-house, IL4Rα of SEQ ID NO: 33 with C-terminal His tag) were coated on 96-well micro plates at 2 μg/mL in PBS overnight at 4° C. The next day, plates were washed with wash buffer (PBS+0.05% w/v Tween-20, PBST), and blocked with 5% w/v non-fatty milk in PBST for 2 hours at 37° C. Plates were then washed again using wash buffer. Serially diluted bispecific antibodies or the controls (starting at 100 nM with a 5-fold serial dilution) in 2.5% w/v non-fatty milk in PBST, 100 μL per well, were added to the IL4Rα bound plates, and incubated at 37° C. for 40 minutes. […] Plates were washed again using wash buffer. Thereafter, the plates were added with 100 μL/well of streptavidin conjugated HRP (1:10000 dilution in PBST buffer, Jackson Immunoresearch, Cat #016-030-084) and incubated for 40 minutes at 37° C. Plates were washed again using wash buffer. Finally, TMB was added and the reaction was stopped using 1M H₂SO₄, and the absorbance was read at 450 nm. Data was analyzed using Graphpad Prism and IC₅₀ values were reported.

| Binder | IC50 [1] [pM] | Inhibition on IL4 induced STAT6 phosphorylation (IC50, nM) [2] [nM] | Inhibition on IL13 induced STAT6 phosphorylation (IC50, nM) [2] [nM] | EC50 [3] [pM] | IC50 [4] [pM] |
| --- | --- | --- | --- | --- | --- |
| B1 | 257 | 0.00703 | 0.0289 | 21.8 | 248 |
| B2 | 758 | 0.0129 | 0.031 | – | 299 |
| B3 | 134 | 0.0221 | 0.0306 | 41.6 | 229 |
| B4 | 144 | 0.0318 | 0.0276 | 34.6 | – |
